According to publication PMC3364950, “Structure and Functional Analysis of the RNA- and Viral Phosphoprotein-Binding Domain of Respiratory Syncytial Virus M2-1 Protein”:

Assays:
[1] = target: T1, M2-1(58-177) core domain (human respiratory syncytial virus (hRSV, strain Long per Fig S7)) (UniProt P04545); test: NMR titration; settings: NMR: 50-60 µM protein, 293 K, 14.1 T, 1:1 model, buffer/salt/pH not in material; EMSA: 100 µM GST fusion eluted with GSH, ~50 µM tRNA, 1 h room temperature …
T1 sequence: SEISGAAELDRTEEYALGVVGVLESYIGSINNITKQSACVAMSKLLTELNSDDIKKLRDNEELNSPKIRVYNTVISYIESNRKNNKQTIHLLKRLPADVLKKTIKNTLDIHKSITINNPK

[2] = target: RSV phosphoprotein P, full-length (P_(1–241)) (UniProt P12579); test: GST pull-down; settings: parent: est. 100; read off a plot
[3] = target: RSV phosphoprotein P, full-length (P_(1–241)) (human respiratory syncytial virus (strain Long)) (UniProt P12579); test: ITC; M2-1_(58–177) (335 µM, 20 injections of 2 µL) injected into P (33 µM) in the cell; 1× PBS; 20°C
[4] = target: GST-M2-1 R126D (full-length) (human respiratory syncytial virus (strain Long)); test: pull-down; ~25 µM GST-M2-1 (or GST) on Glutathione-Sepharose 4B beads in PBS with a 3-fold molar excess of purified P, 1 h at 20°C; washed with PBS; SDS-PAGE, Coomassie blue, bands quantified with ImageJ
[5] = target: GST-M2-1 L148A (full-length) (human respiratory syncytial virus (strain Long)); test: as above
[6] = target: GST-M2-1 T130D (full-length) (human respiratory syncytial virus (strain Long)); test: as above
[7] = target: GST-M2-1 N163D (full-length) (human respiratory syncytial virus (strain Long)); test: as above
[8] = target: GST-M2-1 T160D (full-length) (human respiratory syncytial virus (strain Long)); test: as above
[9] = target: T2, M2-1(58-177) core domain (human respiratory syncytial virus …, UniProt P04545 58-177); test: NMR titration; NMR: 50-60 µM protein, 293 K, 14.1 T, 1:1 model, buffer/salt/pH not in material; EMSA: 100 µM GST fusion eluted with GSH, ~50 µM tRNA, 1 h room temperature, 1.5% agarose, 1x Tris-Glycine, 4°C; settings: protein: recombinant, tags: N-terminal Gly-Ser left after thrombin cleavage of GST
T2 sequence: T1 sequence

[10] = predicted hairpin, poly-U loop, 2-3 bp stem

Molecule: AGUUAUAUAAAA / UUUUAUAUAACU [GE_F-ds]
- Kd [1]: 4.5 µM

Molecule: GST-M2-1 (full-length M2-1 fused to GST), WT K92D
- percent of parent [2]: 54 % WT

Molecule: GST-M2-1 (full-length M2-1 fused to GST), WT K150D
- percent of parent [2]: 63 % WT

Molecule: GST-M2-1 (full-length M2-1 fused to GST), WT R151D
- percent of parent [2]: 44 % WT

Molecule: RSV M2-1_(58–177) core domain (domain or fragment)
- Kd [3]: 3 µM
- stoichiometry N [3]: 1

Molecule: RSV phosphoprotein P, full-length (P_(1–241)) (from UniProt P12579 1-241) (natural protein)
- decrease in P binding against WT [4]: > 50%
- decrease in P binding against WT [5]: > 50%
- decrease in P binding against WT [6]: > 50%
- decrease in P binding against WT [7]: > 50%
- decrease in P binding against WT [8]: > 50%

B1: GE_F-neg (ssRNA)
RNA: UUUUAUAUAACU
- Kd [9]: 85 ± 25 µM

B2: short A-rich (short polyA) (ssRNA)
RNA: CCAAAAAAAU
- Kd [9]: 22 ± 6 µM

B3: GS-neg (ssRNA)
RNA: UAUUUGCCCC
- Kd [9]: 110 ± 15 µM

B4: GE_F-DNA (ssDNA)
DNA: TTTTATATAACT
- Kd [9]: 250 ± 70 µM

B5: GE_SH-neg (ssRNA)
RNA: UUUUUAAUUAACU
- Kd [9]: 75 ± 15 µM

B6: UGA2 (structured_RNA)
RNA: GCGCUUUUUUAAGCGC
- Kd ([9]; hairpin, 5 bp, U-stretch): 60 ± 10 µM

B7: leader-neg (ssRNA)
RNA: CGCAUUUUUUCGCGU
- Kd [9, 10]: 75 ± 15 µM

B8: long U-rich (ssRNA)
RNA: CCCAUUUUUUUGGUU
- Kd [9, 10]: 125 ± 35 µM

B9: leader-pos (ssRNA)
RNA: ACGCGAAAAAAU
- Kd ([9]; partial self-association (two G-C and U-A pairs) seen by NMR): 2.5 ± 1.5 µM
